Experimental findings from publication PMC12241816 are described below.

As usually defined, the stoichiometry N is a count of units in the complex or per binding partner.

This test concerns the target T1, recombinant KDM5B (human), Q9UGL1.
T1 chain: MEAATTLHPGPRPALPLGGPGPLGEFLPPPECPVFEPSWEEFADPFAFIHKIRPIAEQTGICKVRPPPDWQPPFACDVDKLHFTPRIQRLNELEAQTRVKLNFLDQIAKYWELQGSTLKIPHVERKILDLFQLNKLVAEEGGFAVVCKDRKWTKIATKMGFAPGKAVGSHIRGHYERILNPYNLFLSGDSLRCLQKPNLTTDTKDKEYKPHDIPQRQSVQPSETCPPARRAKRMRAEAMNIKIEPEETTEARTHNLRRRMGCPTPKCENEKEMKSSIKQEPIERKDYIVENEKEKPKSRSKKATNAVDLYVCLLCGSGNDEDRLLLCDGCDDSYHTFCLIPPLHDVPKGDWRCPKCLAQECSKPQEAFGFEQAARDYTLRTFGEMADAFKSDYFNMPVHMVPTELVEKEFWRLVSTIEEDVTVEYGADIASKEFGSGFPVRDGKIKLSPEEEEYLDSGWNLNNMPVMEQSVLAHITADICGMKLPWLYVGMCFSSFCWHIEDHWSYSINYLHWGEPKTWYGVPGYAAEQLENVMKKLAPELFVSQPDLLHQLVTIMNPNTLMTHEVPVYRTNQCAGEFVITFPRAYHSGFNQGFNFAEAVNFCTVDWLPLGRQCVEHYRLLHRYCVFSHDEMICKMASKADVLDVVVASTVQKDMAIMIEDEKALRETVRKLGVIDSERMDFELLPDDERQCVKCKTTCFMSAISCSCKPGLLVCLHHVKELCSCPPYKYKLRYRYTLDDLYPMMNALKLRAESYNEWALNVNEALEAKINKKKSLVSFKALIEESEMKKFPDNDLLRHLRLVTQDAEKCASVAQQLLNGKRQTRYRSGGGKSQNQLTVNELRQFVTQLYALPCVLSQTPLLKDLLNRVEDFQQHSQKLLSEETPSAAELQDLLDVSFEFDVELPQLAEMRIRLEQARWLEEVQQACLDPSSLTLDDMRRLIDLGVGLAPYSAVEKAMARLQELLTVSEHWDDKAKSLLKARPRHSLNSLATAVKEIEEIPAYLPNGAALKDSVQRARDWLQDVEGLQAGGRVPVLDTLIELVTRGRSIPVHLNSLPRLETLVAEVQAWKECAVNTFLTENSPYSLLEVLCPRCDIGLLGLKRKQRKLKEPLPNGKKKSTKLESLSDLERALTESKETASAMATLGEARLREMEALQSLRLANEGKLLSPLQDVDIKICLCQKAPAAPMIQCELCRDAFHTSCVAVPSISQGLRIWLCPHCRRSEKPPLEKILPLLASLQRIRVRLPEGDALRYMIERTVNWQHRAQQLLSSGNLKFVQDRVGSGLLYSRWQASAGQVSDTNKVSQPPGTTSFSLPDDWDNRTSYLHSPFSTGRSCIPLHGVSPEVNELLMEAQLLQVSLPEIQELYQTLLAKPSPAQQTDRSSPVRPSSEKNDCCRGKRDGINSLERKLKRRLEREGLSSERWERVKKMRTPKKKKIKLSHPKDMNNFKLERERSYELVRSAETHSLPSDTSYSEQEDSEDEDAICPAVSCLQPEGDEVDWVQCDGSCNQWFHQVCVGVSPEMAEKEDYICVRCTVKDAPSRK
Nature of the test: native gel or EMSA. The following applies: remark: other sources report otherwise.

B1: recombinant KDM5B, Q9UGL1 1-1544 (natural protein)
chain: MEAATTLHPGPRPALPLGGPGPLGEFLPPPECPVFEPSWEEFADPFAFIHKIRPIAEQTGICKVRPPPDWQPPFACDVDKLHFTPRIQRLNELEAQTRVKLNFLDQIAKYWELQGSTLKIPHVERKILDLFQLNKLVAEEGGFAVVCKDRKWTKIATKMGFAPGKAVGSHIRGHYERILNPYNLFLSGDSLRCLQKPNLTTDTKDKEYKPHDIPQRQSVQPSETCPPARRAKRMRAEAMNIKIEPEETTEARTHNLRRRMGCPTPKCENEKEMKSSIKQEPIERKDYIVENEKEKPKSRSKKATNAVDLYVCLLCGSGNDEDRLLLCDGCDDSYHTFCLIPPLHDVPKGDWRCPKCLAQECSKPQEAFGFEQAARDYTLRTFGEMADAFKSDYFNMPVHMVPTELVEKEFWRLVSTIEEDVTVEYGADIASKEFGSGFPVRDGKIKLSPEEEEYLDSGWNLNNMPVMEQSVLAHITADICGMKLPWLYVGMCFSSFCWHIEDHWSYSINYLHWGEPKTWYGVPGYAAEQLENVMKKLAPELFVSQPDLLHQLVTIMNPNTLMTHEVPVYRTNQCAGEFVITFPRAYHSGFNQGFNFAEAVNFCTVDWLPLGRQCVEHYRLLHRYCVFSHDEMICKMASKADVLDVVVASTVQKDMAIMIEDEKALRETVRKLGVIDSERMDFELLPDDERQCVKCKTTCFMSAISCSCKPGLLVCLHHVKELCSCPPYKYKLRYRYTLDDLYPMMNALKLRAESYNEWALNVNEALEAKINKKKSLVSFKALIEESEMKKFPDNDLLRHLRLVTQDAEKCASVAQQLLNGKRQTRYRSGGGKSQNQLTVNELRQFVTQLYALPCVLSQTPLLKDLLNRVEDFQQHSQKLLSEETPSAAELQDLLDVSFEFDVELPQLAEMRIRLEQARWLEEVQQACLDPSSLTLDDMRRLIDLGVGLAPYSAVEKAMARLQELLTVSEHWDDKAKSLLKARPRHSLNSLATAVKEIEEIPAYLPNGAALKDSVQRARDWLQDVEGLQAGGRVPVLDTLIELVTRGRSIPVHLNSLPRLETLVAEVQAWKECAVNTFLTENSPYSLLEVLCPRCDIGLLGLKRKQRKLKEPLPNGKKKSTKLESLSDLERALTESKETASAMATLGEARLREMEALQSLRLANEGKLLSPLQDVDIKICLCQKAPAAPMIQCELCRDAFHTSCVAVPSISQGLRIWLCPHCRRSEKPPLEKILPLLASLQRIRVRLPEGDALRYMIERTVNWQHRAQQLLSSGNLKFVQDRVGSGLLYSRWQASAGQVSDTNKVSQPPGTTSFSLPDDWDNRTSYLHSPFSTGRSCIPLHGVSPEVNELLMEAQLLQVSLPEIQELYQTLLAKPSPAQQTDRSSPVRPSSEKNDCCRGKRDGINSLERKLKRRLEREGLSSERWERVKKMRTPKKKKIKLSHPKDMNNFKLERERSYELVRSAETHSLPSDTSYSEQEDSEDEDAICPAVSCLQPEGDEVDWVQCDGSCNQWFHQVCVGVSPEMAEKEDYICVRCTVKDAPSRK
B1: the stoichiometry N was 2.
